Results on 7 molecules are retold here after US20200330514A1 (TORQUE THERAPEUTICS, published 2020).

The labels stand for the following.
T1: human CD45 receptor on the surface of human T cells (human, UniProt P08575 26-1306)
T1 construct: whole, on cells; also called cellular CD45; leukocyte common antigen
T1 sequence (looked up): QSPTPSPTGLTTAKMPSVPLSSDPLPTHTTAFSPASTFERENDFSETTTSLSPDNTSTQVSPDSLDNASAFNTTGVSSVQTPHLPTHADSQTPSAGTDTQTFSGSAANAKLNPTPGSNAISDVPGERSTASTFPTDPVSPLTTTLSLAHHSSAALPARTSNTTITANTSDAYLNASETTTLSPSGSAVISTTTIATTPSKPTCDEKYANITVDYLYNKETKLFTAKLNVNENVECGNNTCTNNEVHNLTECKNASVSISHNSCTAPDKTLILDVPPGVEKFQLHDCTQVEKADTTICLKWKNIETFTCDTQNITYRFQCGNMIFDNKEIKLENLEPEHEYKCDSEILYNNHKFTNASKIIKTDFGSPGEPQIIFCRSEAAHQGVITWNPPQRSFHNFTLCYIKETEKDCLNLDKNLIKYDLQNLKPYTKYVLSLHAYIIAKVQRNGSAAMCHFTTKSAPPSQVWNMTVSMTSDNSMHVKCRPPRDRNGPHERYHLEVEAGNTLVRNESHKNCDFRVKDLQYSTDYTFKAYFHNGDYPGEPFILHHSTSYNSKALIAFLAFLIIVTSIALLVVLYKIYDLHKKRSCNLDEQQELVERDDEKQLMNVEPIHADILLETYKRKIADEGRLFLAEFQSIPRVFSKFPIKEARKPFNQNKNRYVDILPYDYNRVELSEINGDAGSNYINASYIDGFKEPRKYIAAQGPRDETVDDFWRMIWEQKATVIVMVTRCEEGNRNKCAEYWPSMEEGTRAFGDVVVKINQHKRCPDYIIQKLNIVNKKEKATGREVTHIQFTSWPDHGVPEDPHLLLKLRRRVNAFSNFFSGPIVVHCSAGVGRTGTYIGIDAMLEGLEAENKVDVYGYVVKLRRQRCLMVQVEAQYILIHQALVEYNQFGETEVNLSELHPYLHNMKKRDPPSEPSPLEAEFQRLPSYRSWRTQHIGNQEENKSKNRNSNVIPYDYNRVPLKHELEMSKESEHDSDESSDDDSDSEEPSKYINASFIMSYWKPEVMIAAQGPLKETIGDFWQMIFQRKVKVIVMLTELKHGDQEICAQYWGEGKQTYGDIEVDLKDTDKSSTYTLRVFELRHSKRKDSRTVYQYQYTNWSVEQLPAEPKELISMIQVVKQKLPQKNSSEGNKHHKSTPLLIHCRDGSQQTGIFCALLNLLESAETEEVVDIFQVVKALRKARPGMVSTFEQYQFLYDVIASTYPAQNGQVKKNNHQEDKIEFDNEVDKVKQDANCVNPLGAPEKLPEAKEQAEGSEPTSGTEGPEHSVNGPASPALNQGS

B1: hBC8(23) humanized BC8 anti-CD45 antibody (IgG form) (antibody, V domains shown)
VH: EVQLVESGGGLVQPGGSLRLSCAASGFDFSRYWMSWVRQAPGKGLEWIGEINPTSSTINFADSVKGRFTISRDNAKNSLYLQMNSVRDEDTAVYYCARGNYYRYGDAMDYWGQGTLVTVSS
VL: EIVLTQSPATLSLSLGERATISCRASKSVSTSGYSYLHWYQQKPGQAPKLLIYLASNRATGVPARFSGSGPGTDFTLTISSLEPEDFATYYCQHSRELPFTFGQGTKLEIK
notes: Tested as an antibody detected with anti-human IgG-Fc; its constant regions are not spelled out for the humanized antibody
B2: human CD8 on the surface of human CD8 T cells (receptor)
chain 1: not shown
chain 2: LQQTPAYIKVQTNKMVMLSCEAKISLSNMRIYWLRQRQAPSSDSHHEFLALWDSAKGTIHGEEVEQEKIAVFRDASRFILNLTSVKPEDSGIYFCMIVGSPELTFGKGTQLSVVDFLPTTAQPTKKSTLKKRVCRLPRPETQKGPLCSPITLGLLVAGVLVLLVSLGVAIHLCCRRRRARLRFMKQFYK
notes: whole, on cells
B3: ch4B2 chimeric IgG anti-CD45 antibody (antibody, V domains shown)
VH: QVQLQQSGAELARPGASVKMSCKASGYTFTSYTMQWVKQRPGQGLEWIGYINPSSGYIKYNQKFKDKVTLTADKSSTTAYMQLSRLTSEDSAVYYCARRGSYFFDFWGQGTSVTVSS
VL: DIVITQDELSNPVTSGESVSISCRSSKSLLYKDGKTYLNWFLQRPGQSPQLLIYLMSTRASGVSDRFSGSGSGTDFTLEISRVKAEDVGVYYCQQLVEYPFTFGGGTKLEVK
notes: Chimeric IgG: mouse variable domains, human constant kappa domain and human IgG4 with S228P
B4: h9.4Fab-scIL-12p70 (other)
heavy: EVQLVQSGAEVKKPGASVKVSCKASGYTFTSYSIQWVRQAPGQRLEWIGYINPSSGYIKYNQHFRGRATLTADRSASTAYMELSSLRSEDTAVYYCARGNSGSFDYWGQGTLVTVSSASTKGPSVFPLAPSSKSTSGGTAALGCLVKDYFPEPVTVSWNSGALTSGVHTFPAVLQSSGLYSLSSVVTVPSSSLGTQTYICNVNHKPSNTKVDKKVEPKSC
light: DIVMTQSPLSLPVTPGEPASISCRSSQSLLHSSGITYLYWFLQKPGQSPQLLIYRMSNLASGVPDRFSGSGSGTDFTLKISRVEAEDVGVYYCMQHLEYPFTFGQGTKLEIKRTVAAPSVFIFPPSDEQLKSGTASVVCLLNNFYPREAKVQWKVDNALQSGNSQESVTEQDSKDSTYSLSSTLTLSKADYEKHKVYACEVTHQGLSSPVTKSFNRGECGGGGSGGGGSGGGGSIWELKKDVYVVELDWYPDAPGEMVVLTCDTPEEDGITWTLDQSSEVLGSGKTLTIQVKEFGDAGQYTCHKGGEVLSHSLLLLHKKEDGIWSTDILKDQKEPKNKTFLRCEAKNYSGRFTCWWLTTISTDLTFSVKSSRGSSDPQGVTCGAATLSAERVRGDNKEYEYSVECQEDSACPAAEESLPIEVMVDAVHKLKYENYTSSFFIRDIIKPDPPKNLQLKPLKNSRQVEVSWEYPDTWSTPHSYFSLTFCVQVQGKSKREKKDRVFTDKTSATVICRKNASISVRAQDRYYSSSWSEWASVPCSGGGSGGGSGGGSGGGSRNLPVATPDPGMFPCLHHSQNLLRAVSNMLQKARQTLEFYPCTSEEIDHEDITKDKTSTVEACLPLELTKNESCLNSRETSFITNGSCLASRKTSFMMALCLSSIYEDLKMYQVEFKTMNAKLLMDPKRQIFLDQNMLAVIDELMQALNFNSETVPQKSSLEEPDFYKTKIKLCILLHAFRIRAVTIDRVMSYLNAS
notes: Anti-human CD45 Fab fused to single-chain human IL-12p70; also called anti-CD45-IL12-TF; IL12-TF
B5: chBC8 chimeric IgG anti-CD45 antibody (IgG4-S228P) (antibody, V domains shown)
VH: QVQLVESGGGLVQPGGSLKLSCAASGFDFSRYWMSWVRQAPGKGLEWIGEINPTSSTINFTPSLKDKVFISRDNAKNTLYLQMSKVRSEDTALYYCARGNYYRYGDAMDYWGQGTSVTVSS
VL: DIVLTQSPASLAVSLGQRATISCRASKSVSTSGYSYLHWYQQKPGQPPKLLIYLASNLESGVPARFSGSGSGTDFTLNIHPVEEEDAATYYCQHSRELPFTFGSGTKLEIKR
notes: also called chBC8 IgG; chimeric BC8
B6: ch9.4 chimeric IgG anti-CD45 antibody (antibody, V domains shown)
VH: QVQLQQLGAELARPGASVKMSCKASGYTFTSYSIQWVKQRPGQGLEWIGYINPSSGYIKYNQHFRDRATLTADRSSSTAYMQLSSLTSEDSAVYYCARGNSGSFDYWGQGTTLTVSS
VL: DIVMTQAAPSVPVTPGESLSISCRSSKSLLHSSGITYLYWFLQRPGQSPQLLIYRMSNLASGVPDRFSGSGSGTAFTLRISRVEAEDVGVYYCMQHLEYPFTFGGGTKLEIK
notes: as for B3
B7: chOKT8Fab (anti-human CD8 clone OKT8 as Fab fragment) (Fab, V domains shown)
VH: QVQLQQSGAELVKPGASVKLSCTASGFNIKDTYIHFVRQRPEQGLEWIGRIDPANDNTLYASKFQGKATITADTSSNTAYMHLSSLTSGDTAVYYCGRGYGYYVFDHWGQGTTLTVSS
VL: DVQINQSPSFLAASPGETITINCRTSRSISQYLAWYQEKPGKTNKLLIYSGSTLQSGIPSRFSGSGSGTDFTLTISGLEPEDFAMYYCQQHNENPLTFGAGTKLELKR

The target in assay [1] is T1, human CD45 receptor on the surface of …. Briefly: apparent KD (KD,app); flow cytometry titration of IgG on activated primary human CD8 T cells, 4-parameter fit. An excerpt:
For comparison with previous results we evaluated these antibodies alongside chBC8, hBC8(23), and a non-binding variant hBC8-null. The humanized BC8 antibody consists of variable domains containing CDR regions grafted from BC8, and the hBC8-null variant contains an SGGGS substitution in the heavy-chain CDR3, which ablates binding to CD45 (FIG. 10A). […] We use the term apparent dissociation constant (K_{D,app}) to distinguish from a true equilibrium dissociation constant: the bivalent nature of the IgG antibody introduces an avidity effect that complicates the calculation of a true equilibrium dissociation constant for these type of assays. Nevertheless, the K_{D,app} is a useful metric for scoring relative affinities of the antibodies to the cellular receptor in its native context.
Cell binding assay. Primary human CD8 T-cells were activated with CD3/CD28 beads and 10 ng/mL IL-2 as described in Example 1. Following activation and an overnight rest in full RPMI media (see Example 1 methods) the T-cells were incubated with seven serial five-fold dilutions of antibodies spanning 500 nM to 6.4 μM, or with media only control at 4° C. for 1 hr. Cells were washed with MACS buffer (PBS, 2% FBS, 1 mM EDTA) three times, and antibody binding was detected using a PE-conjugated anti-human IgG-Fc antibody (BioLegend, cat. no. HP6017) for 20 min. at 4° C. Cells were washed two times with MACS buffer, and the resuspended in MACS buffer with live-dead stain (7-AAD). Antibody binding was quantified using the median fluorescence intensity (MFI) of the live cell population (via 7-AAD exclusion) within the PE signal. Curves were generated by plotting mean fluorescent units against antibody concentration, and apparent dissociation constants (K_{D,app}) were determined by non-linear regression using a four-parameter logistic equation using GraphPad Prism (GraphPad Software, Inc.).
(In flow cytometry, cells or beads pass a laser one at a time.)

In assay [2] the target is T2, chOKT8-IL15/sushi Fab (human, UniProt Q13261 31-95).
T2 construct: Anti-human CD8 Fab IFM; also called chOKT8Fab-IL15/sushi; chOKT8Fab-Il15/sushi
The assay is described as follows: flow cytometry titration on total CD3 human T cells (FIG. 17D).

Assay [3] concerns the target T1, human CD45 receptor on the surface of …. Briefly: pulse incubation of human CD3 T cells, anti-human IgG staining by flow cytometry (FIG. 23). The method, then:
We evaluated the ability of IL12-TFs to support the loading of IL-12 onto T cells. Briefly, human total CD3 T cells were activated with CD3/CD28 Dynabeads for three days. Beads were removed and cells were incubated with IL-2 for 1 day prior to pulse incubation with h9.4Fab-scIL-12p70 diluted in full medium (RPMI 1640 with 10% FBS). Cells were incubated in biological duplicate with full media (Mock condition) or h9.4Fab-scIL-12p70 for 1 hr at 37° C. and then washed three times will full media (RPMI 1640 with 10% FBS) to remove unbound IL12-TF. Cells were then plated in full medium at a cell density of approximately 200,000 cells/mL and incubated at 37° C., 5% CO2. Surface tethered IL-12 was detected using flow cytometry by immunostaining with a polyclonal anti-human IgG antibody. Cells were counted using CountBright Absolute flow cytometry counting beads. In each case cells were analyzed on a FACSCelesta using Diva Software; data was analyzed using Cytobank.

Assay [4] concerns the target B2. The assay is described as follows: flow cytometry titration on total CD3 human T cells (FIG. 17D).

T2 sequence (Q13261 31-95): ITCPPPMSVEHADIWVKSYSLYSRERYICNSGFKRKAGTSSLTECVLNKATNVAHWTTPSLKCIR

Take B1: the Kd in assay [1] worked out at 7.8 nM.
As for B2, in assay [2], the binding result is “binds”.
In the case of B3, the Kd in assay [1] came out at 0.44 nM.
In the case of B4, the binding result in assay [3] is given as “binds”.
As to B5, the Kd in assay [1] is 6.68 nM.
The same measure, in the same setting: next, B6: 0.84 nM.
With B7, the binding result in assay [4] was “binds”.
